In patent US20140213531A1 (POLYPHOR, published 2014):
Bridges are numbered along the chain shown (N, C = ends). [ ]: non-standard residue; d: D form. Pro(4NHCOPhe) = not defined here; Nle = CCCC[C@H](N)C(=O)O

Key:
[1] = molecular target: T1, CathepsinG, from human neutrophils (human, UniProt P08311 21-244); assay: cell-based or functional assay
T1 sequence (looked up): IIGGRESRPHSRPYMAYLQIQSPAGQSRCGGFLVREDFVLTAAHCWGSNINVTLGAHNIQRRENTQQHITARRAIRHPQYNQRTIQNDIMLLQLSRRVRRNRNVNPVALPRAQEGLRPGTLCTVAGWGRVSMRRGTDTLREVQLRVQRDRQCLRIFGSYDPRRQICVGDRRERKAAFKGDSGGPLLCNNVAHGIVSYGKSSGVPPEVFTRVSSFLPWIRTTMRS

[2] = molecular target: T2, Elastase from human neutrophils (human, UniProt P08246 30-247, limits assumed); assay: cell-based or functional assay
T2 sequence (looked up): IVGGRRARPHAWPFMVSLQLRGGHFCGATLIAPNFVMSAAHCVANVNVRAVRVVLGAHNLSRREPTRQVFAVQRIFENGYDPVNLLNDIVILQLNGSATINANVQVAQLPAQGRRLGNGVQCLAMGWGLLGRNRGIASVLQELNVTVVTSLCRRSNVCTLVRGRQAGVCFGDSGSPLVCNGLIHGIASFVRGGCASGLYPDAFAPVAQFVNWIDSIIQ

[3] = molecular target: Trypsin, Iodination grade, from human pancreas (human, UniProt P07477 24-247); assay: cell-based or functional assay
[4] = molecular target: Chymotrypsin, from human pancreas (human, UniProt P17538 19-263); assay: cell-based or functional assay
Chymase, from human skin [5] = molecular target: T3, Chymase, from human skin (human, UniProt P23946 22-247); assay: cell-based or functional assay
T3 sequence (looked up): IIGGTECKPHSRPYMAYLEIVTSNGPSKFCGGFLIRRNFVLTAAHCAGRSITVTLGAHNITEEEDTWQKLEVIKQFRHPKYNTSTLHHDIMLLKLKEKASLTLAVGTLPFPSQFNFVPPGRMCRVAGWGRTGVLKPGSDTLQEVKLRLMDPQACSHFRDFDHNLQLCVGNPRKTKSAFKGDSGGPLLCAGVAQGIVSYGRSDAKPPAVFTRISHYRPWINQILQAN

[6] = molecular target: Thrombin, from Human Plasma, high activity (human, UniProt P00734 328-622); assay: cell-based or functional assay
[7] = molecular target: Coagulation Factor Xa, from human plasma (human, UniProt P00742 41-488, limits assumed); assay: cell-based or functional assay
[8] = molecular target: Urokinase from human urine (human, UniProt P00749 21-431, limits assumed); assay: cell-based or functional assay
[9] = molecular target: Tryptase, from human lung (human, UniProt Q15661 31-275, limits assumed); assay: cell-based or functional assay
Chymase, from human skin [10] = molecular target: T4, Chymase, from human skin (human, UniProt P23946 22-247); assay: enzyme inhibition, pNA substrate
T4 construct: purified natural enzyme, bought
T4 sequence (looked up): T3 sequence (looked up)

[11] = molecular target: Thrombin, from Human Plasma, high activity (human, UniProt P00734 328-622); assay: enzyme inhibition, pNA substrate

Chain of Tryptase, from human lung (Q15661 31-275 limits assumed): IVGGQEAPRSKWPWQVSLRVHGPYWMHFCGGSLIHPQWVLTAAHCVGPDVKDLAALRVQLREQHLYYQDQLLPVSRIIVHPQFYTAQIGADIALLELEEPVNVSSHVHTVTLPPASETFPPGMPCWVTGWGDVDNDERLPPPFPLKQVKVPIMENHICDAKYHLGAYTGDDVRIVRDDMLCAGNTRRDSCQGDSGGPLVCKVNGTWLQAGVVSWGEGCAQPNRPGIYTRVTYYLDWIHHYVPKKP
Chain of Coagulation Factor Xa, from human plasma (P00742 41-488 limits assumed): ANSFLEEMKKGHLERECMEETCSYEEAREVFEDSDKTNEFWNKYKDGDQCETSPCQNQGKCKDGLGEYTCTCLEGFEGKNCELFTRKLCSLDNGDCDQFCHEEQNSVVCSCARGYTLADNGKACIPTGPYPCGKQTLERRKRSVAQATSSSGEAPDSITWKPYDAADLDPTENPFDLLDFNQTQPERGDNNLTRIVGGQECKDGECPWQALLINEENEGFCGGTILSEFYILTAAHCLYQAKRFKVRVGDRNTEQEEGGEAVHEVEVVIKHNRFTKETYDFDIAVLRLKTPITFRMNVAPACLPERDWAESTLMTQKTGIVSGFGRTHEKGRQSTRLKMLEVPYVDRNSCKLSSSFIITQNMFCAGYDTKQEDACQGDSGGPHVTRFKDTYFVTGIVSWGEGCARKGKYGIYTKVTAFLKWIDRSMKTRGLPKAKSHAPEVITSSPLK
Chain of Chymotrypsin, from human pancreas (P17538 19-263): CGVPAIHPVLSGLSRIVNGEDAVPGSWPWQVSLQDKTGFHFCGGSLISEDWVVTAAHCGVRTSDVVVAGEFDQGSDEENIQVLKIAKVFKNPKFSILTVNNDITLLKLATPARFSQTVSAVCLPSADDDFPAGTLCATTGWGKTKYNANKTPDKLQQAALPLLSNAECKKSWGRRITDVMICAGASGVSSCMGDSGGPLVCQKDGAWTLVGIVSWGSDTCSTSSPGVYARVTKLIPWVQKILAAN

B1: Example 7 (peptide)
peptide: RETKSDPPIRF
HELM: PEPTIDE1{R.E.T.K.S.D.P.P.I.R.F.[dP].P}$PEPTIDE1,PEPTIDE1,1:R1-13:R2$$$V2.0
SMILES: CC[C@H](C)[C@@H]1NC(=O)[C@@H]2CCCN2C(=O)[C@@H]2CCCN2C(=O)[C@H](CC(=O)O)NC(=O)[C@H](CO)NC(=O)[C@H](CCCCN)NC(=O)[C@H]([C@@H](C)O)NC(=O)[C@H](CCC(=O)O)NC(=O)[C@H](CCCNC(=N)N)NC(=O)[C@@H]2CCCN2C(=O)[C@H]2CCCN2C(=O)[C@H](Cc2ccccc2)NC(=O)[C@H](CCCNC(=N)N)NC1=O
**Q.** Which IC50 [1] does the source give for B1 here?
**A.** Its IC50 is 91 nmol.

**Q.** What about the “% inhibition at 100 µM” value [2] of the same binder?
**A.** Its value is 1.5%.

**Q.** What about the “% inhibition at 100 µM” value [3] of the same binder?
**A.** The value was 41%.

**Q.** What about the “% inhibition at 100 µM” value [4] of the same binder?
**A.** Its value is 12%.

**Q.** What about the “% inhibition at 100 µM” value (Chymase, from human skin [5]) of the same binder?
**A.** The value was 13.4%.

**Q.** And the “% inhibition at 100 µM” value [6]?
**A.** Its value is 0%.

**Q.** And the “% inhibition at 100 µM” value [7]?
**A.** The value was 11.7%.

**Q.** And the “% inhibition at 100 µM” value [8]?
**A.** The value was 1.1%.

**Q.** What about the “% inhibition at 100 µM” value [9] of the same binder?
**A.** Its value is 1.5%.

B2: Example 103 (peptide)
peptide: XCTASIPPQCY
HELM: PEPTIDE1{[O=C([C@H](CCc1ccccc1)N[*:1])[*:2]].C.T.A.S.I.P.P.Q.C.Y.[dP].P}$PEPTIDE1,PEPTIDE1,2:R3-10:R3|PEPTIDE1,PEPTIDE1,1:R1-13:R2$$$V2.0
SMILES: CC[C@H](C)[C@@H]1NC(=O)[C@H](CO)NC(=O)[C@H](C)NC(=O)[C@H]([C@@H](C)O)NC(=O)[C@@H]2CSSC[C@H](NC(=O)[C@H](CCC(N)=O)NC(=O)[C@@H]3CCCN3C(=O)[C@@H]3CCCN3C1=O)C(=O)N[C@@H](Cc1ccc(O)cc1)C(=O)N1CCC[C@@H]1C(=O)N1CCC[C@H]1C(=O)N[C@@H](CCc1ccccc1)C(=O)N2
**Q.** How did the “% inhibition at 100 µM” value (Chymase, from human skin [10]) turn out when B2 was run?
**A.** The value was 0%.

**Q.** What about the “% inhibition at 100 µM” value [11] of the same binder?
**A.** The value was 10.2%.

B3: Example 68 (peptide)
peptide: FCTKSDPPICS
HELM: PEPTIDE1{F.C.T.K.S.D.P.P.I.C.S.[dA].D}$PEPTIDE1,PEPTIDE1,2:R3-10:R3|PEPTIDE1,PEPTIDE1,1:R1-13:R2$$$V2.0
SMILES: CC[C@H](C)[C@@H]1NC(=O)[C@@H]2CCCN2C(=O)[C@@H]2CCCN2C(=O)[C@H](CC(=O)O)NC(=O)[C@H](CO)NC(=O)[C@H](CCCCN)NC(=O)[C@H]([C@@H](C)O)NC(=O)[C@@H]2CSSC[C@H](NC1=O)C(=O)N[C@@H](CO)C(=O)N[C@H](C)C(=O)N[C@@H](CC(=O)O)C(=O)N[C@@H](Cc1ccccc1)C(=O)N2
**Q.** Which IC50 [1] does the source give for B3 here?
**A.** Its IC50 is 59 nmol.

**Q.** And the IC50 [2]?
**A.** Its IC50 is over 100000 nmol.

**Q.** And the “% inhibition at 100 µM” value [3]?
**A.** Its value is 84.2%.

**Q.** What about the “% inhibition at 100 µM” value [4] of the same binder?
**A.** Its value is 4.3%.

**Q.** What about the “% inhibition at 100 µM” value (Chymase, from human skin [5]) of the same binder?
**A.** Its value is 0%.

**Q.** And the “% inhibition at 100 µM” value [6]?
**A.** The value was 5.4%.

**Q.** What about the “% inhibition at 100 µM” value [7] of the same binder?
**A.** The value was 8.6%.

**Q.** And the “% inhibition at 100 µM” value [8]?
**A.** Its value is 4.6%.

**Q.** What about the “% inhibition at 100 µM” value [9] of the same binder?
**A.** The value was 21.3%.

**Q.** Which “% inhibition at 100 µM” value (Chymase, from human skin [10]) does the source give for cyclo([Nle]CTASIP[Pro(4NHCOPhe)]QCY[dP]P) (disulfide 2-10; reading uncertain, also called Ex. 88) [Example 88] here?
**A.** The value was 0%.

B4: Example 90 (peptide)
peptide: XCTASIPPQCF
HELM: PEPTIDE1{[Nle].C.T.A.S.I.P.P.Q.C.F.[dP].P}$PEPTIDE1,PEPTIDE1,2:R3-10:R3|PEPTIDE1,PEPTIDE1,1:R1-13:R2$$$V2.0
SMILES: CCCC[C@@H]1NC(=O)[C@@H]2CCCN2C(=O)[C@H]2CCCN2C(=O)[C@H](Cc2ccccc2)NC(=O)[C@@H]2CSSC[C@H](NC1=O)C(=O)N[C@@H]([C@@H](C)O)C(=O)N[C@@H](C)C(=O)N[C@@H](CO)C(=O)N[C@@H]([C@@H](C)CC)C(=O)N1CCC[C@H]1C(=O)N1CCC[C@H]1C(=O)N[C@@H](CCC(N)=O)C(=O)N2
notes: also called Ex. 90
**Q.** What does the source list for B4?
**A.** % inhibition at 100 µM (Chymase, from human skin [10]): 0%; % inhibition at 100 µM [11]: 0%

B5: Example 12 (peptide)
peptide: XCTKSDPPICR
HELM: PEPTIDE1{[O=C([C@@H](N[*:1])C1CCCCC1)[*:2]].C.T.K.S.D.P.P.I.C.R.[dP].P}$PEPTIDE1,PEPTIDE1,2:R3-10:R3|PEPTIDE1,PEPTIDE1,1:R1-13:R2$$$V2.0
SMILES: CC[C@H](C)[C@@H]1NC(=O)[C@@H]2CCCN2C(=O)[C@@H]2CCCN2C(=O)[C@H](CC(=O)O)NC(=O)[C@H](CO)NC(=O)[C@H](CCCCN)NC(=O)[C@H]([C@@H](C)O)NC(=O)[C@@H]2CSSC[C@H](NC1=O)C(=O)N[C@@H](CCCNC(=N)N)C(=O)N1CCC[C@@H]1C(=O)N1CCC[C@H]1C(=O)N[C@@H](C1CCCCC1)C(=O)N2
**Q.** Which results are given for B5?
**A.** IC50 [1]: 90 nmol; IC50 [2]: 37000 nmol; % inhibition at 100 µM [3]: 97%; % inhibition at 100 µM [4]: 28%; % inhibition at 100 µM (Chymase, from human skin [5]): 12%; % inhibition at 100 µM [6]: 11%; % inhibition at 100 µM [7]: 5%; % inhibition at 100 µM [8]: 12%; % inhibition at 100 µM [9]: 59.3%

B6: Example 75 (peptide)
peptide: RCTKSDPPICF
HELM: PEPTIDE1{R.C.T.K.S.D.P.P.I.C.F.[dP].P}$PEPTIDE1,PEPTIDE1,2:R3-10:R3|PEPTIDE1,PEPTIDE1,1:R1-13:R2$$$V2.0
SMILES: CC[C@H](C)[C@@H]1NC(=O)[C@@H]2CCCN2C(=O)[C@@H]2CCCN2C(=O)[C@H](CC(=O)O)NC(=O)[C@H](CO)NC(=O)[C@H](CCCCN)NC(=O)[C@H]([C@@H](C)O)NC(=O)[C@@H]2CSSC[C@H](NC1=O)C(=O)N[C@@H](Cc1ccccc1)C(=O)N1CCC[C@@H]1C(=O)N1CCC[C@H]1C(=O)N[C@@H](CCCNC(=N)N)C(=O)N2
**Q.** With B6 as the binder, how does the IC50 [1] read?
**A.** Its IC50 is 86 nmol.

**Q.** What about the “% inhibition at 100 µM” value [2] of the same binder?
**A.** The value was 69.1%.

**Q.** What about the “% inhibition at 100 µM” value [3] of the same binder?
**A.** Its value is 92.6%.

**Q.** What about the “% inhibition at 100 µM” value [4] of the same binder?
**A.** Its value is 7.8%.

**Q.** And the “% inhibition at 100 µM” value (Chymase, from human skin [5])?
**A.** The value was 0%.

**Q.** What about the “% inhibition at 100 µM” value [6] of the same binder?
**A.** Its value is 1.1%.

**Q.** What about the “% inhibition at 100 µM” value [7] of the same binder?
**A.** Its value is 5.7%.

**Q.** What about the “% inhibition at 100 µM” value [8] of the same binder?
**A.** The value was 5.7%.

**Q.** And the “% inhibition at 100 µM” value [9]?
**A.** The value was 0%.

B7: Example 64 (peptide)
peptide: FCTKSDPPICS
HELM: PEPTIDE1{F.C.T.K.S.D.P.P.I.C.S.[dP].E}$PEPTIDE1,PEPTIDE1,2:R3-10:R3|PEPTIDE1,PEPTIDE1,1:R1-13:R2$$$V2.0
SMILES: CC[C@H](C)[C@@H]1NC(=O)[C@@H]2CCCN2C(=O)[C@@H]2CCCN2C(=O)[C@H](CC(=O)O)NC(=O)[C@H](CO)NC(=O)[C@H](CCCCN)NC(=O)[C@H]([C@@H](C)O)NC(=O)[C@@H]2CSSC[C@H](NC1=O)C(=O)N[C@@H](CO)C(=O)N1CCC[C@@H]1C(=O)N[C@@H](CCC(=O)O)C(=O)N[C@@H](Cc1ccccc1)C(=O)N2
**Q.** B7 was tested. Which IC50 [1] did it give?
**A.** The IC50 was 45 nmol.

**Q.** What about the IC50 [2] of the same binder?
**A.** Its IC50 is over 100000 nmol.

**Q.** And the “% inhibition at 100 µM” value [3]?
**A.** Its value is 87%.

**Q.** What about the “% inhibition at 100 µM” value [4] of the same binder?
**A.** Its value is 0%.

**Q.** And the “% inhibition at 100 µM” value (Chymase, from human skin [5])?
**A.** Its value is 0%.

**Q.** What about the “% inhibition at 100 µM” value [6] of the same binder?
**A.** The value was 2.3%.

**Q.** And the “% inhibition at 100 µM” value [7]?
**A.** Its value is 0%.

**Q.** What about the “% inhibition at 100 µM” value [8] of the same binder?
**A.** The value was 3%.

**Q.** What about the “% inhibition at 100 µM” value [9] of the same binder?
**A.** The value was 0%.
